Experimental data reported in US20260070987A1.
Residue numbers refer to the chain shown, from its start. In names and notes the source's numbering stands.

B1: equine IgG7 D312M mutant (antibody, part only; not given: variable domains, not shown: another chain or arm of the molecule)
constant: ASTTAPKVFPLASHSAATSGSTVALGCLVSSYFPEPVTVSWNSGALTSGVHTFPSVLQSSGLYSLSSMVTVPASSLKSQTYICNVAHPASSTKVDKKIVIKECGGCPTCPECLSVGPSVFIFPPKPKDVLMISRTPTVTCVVVDVGHDFPDVQFNWYVDGVETHTATTEPKQEQNNSTYRVVSILAIQHKMWLSGKEFKCKVNNQALPAPVQKTISKPTGQPREPQVYVLAPHRDELSKNKVSVTCLVKDFYPTDIDIEWKSNGQPEPETKYSTTPAQLDSDGSYFLYSKLTVETNRWQQGTTFTCAVMHEALHNHYTEKSVSKSPGK
B2: equine IgG7 D312N mutant (antibody, part only; not given: Variable domains, not shown: another chain or arm of the molecule)
constant: B1 constant with M191N
B3: equine IgG7 D312P mutant (antibody, part only; not given: variable domains, not shown: another chain or arm of the molecule)
constant: B1 constant with M191P
B4: equine IgG7 D312Q mutant (antibody, part only; not given: variable domains, not shown: another chain or arm of the molecule)
constant: B1 constant with M191Q
B5: equine IgG7 D312R mutant (antibody, part only; not given: Variable domains, not shown: another chain or arm of the molecule)
constant: B1 constant with M191R
B6: equine IgG7 D312S mutant (antibody, part only; not given: variable domains, not shown: another chain or arm of the molecule)
constant: B1 constant with M191S
B7: equine IgG7 D312T mutant (antibody, part only; not given: variable domains, not shown: another chain or arm of the molecule)
constant: B1 constant with M191T
B8: equine IgG7 D312V mutant (antibody, part only; not given: variable domains, not shown: another chain or arm of the molecule)
constant: B1 constant with M191V
B9: equine IgG7 D312W mutant (antibody, part only; not given: variable domains, not shown: another chain or arm of the molecule)
constant: B1 constant with M191W
B10: equine IgG7 D312Y mutant (antibody, part only; not given: variable domains, not shown: another chain or arm of the molecule)
constant: B1 constant with M191Y
B11: equine IgG7 Y436A mutant (antibody, part only; not given: Variable domains, not shown: another chain or arm of the molecule)
constant: B1 constant with M191D, Y317A
B12: equine IgG7 Y436C mutant (antibody, part only; not given: variable domains, not shown: another chain or arm of the molecule)
constant: B1 constant with M191D, Y317C
B13: equine IgG7 Y436D mutant (antibody, part only; not given: Variable domains, not shown: another chain or arm of the molecule)
constant: B1 constant with M191D, Y317D
B14: equine IgG7 Y436E mutant (antibody, part only; not given: variable domains, not shown: another chain or arm of the molecule)
constant: B1 constant with M191D, Y317E
B15: equine IgG7 Y436F mutant (antibody, part only; not given: variable domains, not shown: another chain or arm of the molecule)
constant: B1 constant with M191D, Y317F
B16: equine IgG7 Y436G mutant (antibody, part only; not given: variable domains, not shown: another chain or arm of the molecule)
constant: B1 constant with M191D, Y317G
B17: equine IgG7 Y436I mutant (antibody, part only; not given: Variable domains, not shown: another chain or arm of the molecule)
constant: B1 constant with M191D, Y317I
B18: equine IgG7 Y436K mutant (antibody, part only; not given: variable domains, not shown: another chain or arm of the molecule)
constant: B1 constant with M191D, Y317K
B19: equine IgG7 Y436M mutant (antibody, part only; not given: variable domains, not shown: another chain or arm of the molecule)
constant: B1 constant with M191D, Y317M
B20: equine IgG7 Y436N mutant (antibody, part only; not given: Variable domains, not shown: another chain or arm of the molecule)
constant: B1 constant with M191D, Y317N
B21: equine IgG7 Y436Q mutant (antibody, part only; not given: Variable domains, not shown: another chain or arm of the molecule)
constant: B1 constant with M191D, Y317Q
B22: equine IgG7 Y436R mutant (antibody, part only; not given: variable domains, not shown: another chain or arm of the molecule)
constant: B1 constant with M191D, Y317R
B23: equine IgG7 Y436S mutant (antibody, part only; not given: variable domains, not shown: another chain or arm of the molecule)
constant: B1 constant with M191D, Y317S
B24: equine IgG7 Y436T mutant (antibody, part only; not given: variable domains, not shown: another chain or arm of the molecule)
constant: B1 constant with M191D, Y317T
B25: equine IgG7 Y436V mutant (antibody, part only; not given: Variable domains, not shown: another chain or arm of the molecule)
constant: B1 constant with M191D, Y317V
B26: equine IgG7 Y436W mutant (antibody, part only; not given: Variable domains, not shown: another chain or arm of the molecule)
constant: B1 constant with M191D, Y317W
B27: equine IgG7 T286A mutant (antibody, part only; not given: variable domains, not shown: another chain or arm of the molecule)
constant: B1 constant with T165A, M191D
B28: equine IgG7 T286C mutant (antibody, part only; not given: variable domains, not shown: another chain or arm of the molecule)
constant: B1 constant with T165C, M191D
B29: equine IgG7 T286D mutant (antibody, part only; not given: Variable domains, not shown: another chain or arm of the molecule)
constant: B1 constant with T165D, M191D
B30: equine IgG7 T286E mutant (antibody, part only; not given: variable domains, not shown: another chain or arm of the molecule)
constant: B1 constant with T165E, M191D
B31: equine IgG7 T286F mutant (antibody, part only; not given: variable domains, not shown: another chain or arm of the molecule)
constant: B1 constant with T165F, M191D
B32: equine IgG7 T286G mutant (antibody, part only; not given: variable domains, not shown: another chain or arm of the molecule)
constant: B1 constant with T165G, M191D
B33: equine IgG7 T286H mutant (antibody, part only; not given: variable domains, not shown: another chain or arm of the molecule)
constant: B1 constant with T165H, M191D
B34: equine IgG7 T286I mutant (antibody, part only; not given: variable domains, not shown: another chain or arm of the molecule)
constant: B1 constant with T165I, M191D
B35: equine IgG7 T286K mutant (antibody, part only; not given: variable domains, not shown: another chain or arm of the molecule)
constant: B1 constant with T165K, M191D
B36: equine IgG7 T286L mutant (antibody, part only; not given: Variable domains, not shown: another chain or arm of the molecule)
constant: B1 constant with T165L, M191D
B37: equine IgG7 T286M mutant (antibody, part only; not given: variable domains, not shown: another chain or arm of the molecule)
constant: B1 constant with T165M, M191D
B38: equine IgG7 T286P mutant (antibody, part only; not given: variable domains, not shown: another chain or arm of the molecule)
constant: B1 constant with T165P, M191D
B39: equine IgG7 T286Q mutant (antibody, part only; not given: variable domains, not shown: another chain or arm of the molecule)
constant: B1 constant with T165Q, M191D
B40: equine IgG7 T286R mutant (antibody, part only; not given: variable domains, not shown: another chain or arm of the molecule)
constant: B1 constant with T165R, M191D
B41: equine IgG7 T286S mutant (antibody, part only; not given: variable domains, not shown: another chain or arm of the molecule)
constant: B1 constant with T165S, M191D
B42: equine IgG7 T286V mutant (antibody, part only; not given: Variable domains, not shown: another chain or arm of the molecule)
constant: B1 constant with T165V, M191D
B43: equine IgG7 T286W mutant (antibody, part only; not given: variable domains, not shown: another chain or arm of the molecule)
constant: B1 constant with T165W, M191D

Target: equine FcRn (large alpha subunit p51) in complex with equine beta-2-microglobulin (equine) (UniProt F6XZ61)
Experiment: SPR (Biacore), pH 6

Sequence of UniProt F6XZ61 (F6XZ61 entry or part of it, one chain of several): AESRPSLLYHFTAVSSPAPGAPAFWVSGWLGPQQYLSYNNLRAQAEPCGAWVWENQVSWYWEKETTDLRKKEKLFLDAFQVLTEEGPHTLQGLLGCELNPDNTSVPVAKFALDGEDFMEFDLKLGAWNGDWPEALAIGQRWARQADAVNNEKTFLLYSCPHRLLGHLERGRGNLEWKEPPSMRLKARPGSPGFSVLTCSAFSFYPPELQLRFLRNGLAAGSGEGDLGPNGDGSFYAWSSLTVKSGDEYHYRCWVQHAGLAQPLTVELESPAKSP

Kd [nM]	Binder
6.1	B1
25.3	B2
8	B3
13.6	B4
9	B5
9.6	B6
9.9	B7
11.3	B8
13.2	B9
9.4	B10
13.3	B11
12.5	B12
11.6	B13
13.4	B14
9.3	B15
51.7	B16
25.1	B17
74	B18
5.5	B19
65.5	B20
9.1	B21
7.7	B22

Kd [nM]	Binder
169	B23
36.2	B24
6.7	B25
28.2	B26
110	B27
84.4	B28
47.5	B29
35.5	B30
7.8	B31
18.2	B32
16	B33
15.8	B34
20.6	B35
14	B36
19.3	B37
6.9	B38
7.7	B39
7.8	B40
17.1	B41
2.3	B42
15.4	B43
